In this assay the target is FLAG-tagged PACS-2 (UniProt Q86VP3 1-889). The experiment in a line: co-IP.
FLAG-tagged PACS-2, sequence (Q86VP3 whole entry): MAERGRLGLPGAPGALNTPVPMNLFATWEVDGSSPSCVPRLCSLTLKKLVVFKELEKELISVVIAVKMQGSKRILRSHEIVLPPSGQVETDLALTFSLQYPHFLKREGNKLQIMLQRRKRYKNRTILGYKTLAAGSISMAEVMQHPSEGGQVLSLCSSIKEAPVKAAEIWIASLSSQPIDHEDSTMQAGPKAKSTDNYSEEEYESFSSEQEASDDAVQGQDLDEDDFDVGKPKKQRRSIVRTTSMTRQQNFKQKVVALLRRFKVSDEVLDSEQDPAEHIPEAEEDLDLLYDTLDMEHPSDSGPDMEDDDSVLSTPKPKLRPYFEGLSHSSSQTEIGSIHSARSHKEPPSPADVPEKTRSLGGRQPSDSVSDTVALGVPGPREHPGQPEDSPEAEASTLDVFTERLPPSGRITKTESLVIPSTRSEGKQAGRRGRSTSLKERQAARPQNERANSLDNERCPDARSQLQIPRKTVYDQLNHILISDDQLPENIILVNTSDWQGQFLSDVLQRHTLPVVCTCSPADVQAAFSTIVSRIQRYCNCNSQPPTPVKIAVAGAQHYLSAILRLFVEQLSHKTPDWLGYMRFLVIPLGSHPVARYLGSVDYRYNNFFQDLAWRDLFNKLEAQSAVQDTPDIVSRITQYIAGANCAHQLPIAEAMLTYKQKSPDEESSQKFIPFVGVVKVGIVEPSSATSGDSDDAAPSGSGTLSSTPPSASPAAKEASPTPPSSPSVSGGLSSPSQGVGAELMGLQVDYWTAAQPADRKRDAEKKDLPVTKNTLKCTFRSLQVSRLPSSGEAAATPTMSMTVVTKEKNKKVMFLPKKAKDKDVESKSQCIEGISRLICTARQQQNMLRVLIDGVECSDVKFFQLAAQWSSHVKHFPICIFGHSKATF

B1: V5-tagged mouse SIRT1 (enzyme, UniProt Q923E4 1-737, looked up)
chain: MADEVALALQAAGSPSAAAAMEAASQPADEPLRKRPRRDGPGLGRSPGEPSAAVAPAAAGCEAASAAAPAALWREAAGAAASAEREAPATAVAGDGDNGSGLRREPRAADDFDDDEGEEEDEAAAAAAAAAIGYRDNLLLTDGLLTNGFHSCESDDDDRTSHASSSDWTPRPRIGPYTFVQQHLMIGTDPRTILKDLLPETIPPPELDDMTLWQIVINILSEPPKRKKRKDINTIEDAVKLLQECKKIIVLTGAGVSVSCGIPDFRSRDGIYARLAVDFPDLPDPQAMFDIEYFRKDPRPFFKFAKEIYPGQFQPSLCHKFIALSDKEGKLLRNYTQNIDTLEQVAGIQRILQCHGSFATASCLICKYKVDCEAVRGDIFNQVVPRCPRCPADEPLAIMKPEIVFFGENLPEQFHRAMKYDKDEVDLLIVIGSSLKVRPVALIPSSIPHEVPQILINREPLPHLHFDVELLGDCDVIINELCHRLGGEYAKLCCNPVKLSEITEKPPRPQKELVHLSELPPTPLHISEDSSSPERTVPQDSSVIATLVDQATNNNVNDLEVSESSCVEEKPQEVQTSRNVENINVENPDFKAVGSSTADKNERTSVAETVRKCWPNRLAKEQISKRLEGNQYLFVPPNRYIFHGAEVYSDSEDDVLSSSSCGSNSDSGTCQSPSLEEPLEDESEIEEFYNGLEDDTERPECAGGSGFGADGGDQEVVNEAIATRQELTDVNYPSDKS
For the molecule B1, the “fold enhancement of the co-IP in the presence of DBC1” value was > 8 fold.

B2: V5-tagged human SIRT1 (enzyme, UniProt Q96EB6 1-747, looked up)
chain: MADEAALALQPGGSPSAAGADREAASSPAGEPLRKRPRRDGPGLERSPGEPGGAAPEREVPAAARGCPGAAAAALWREAEAEAAAAGGEQEAQATAAAGEGDNGPGLQGPSREPPLADNLYDEDDDDEGEEEEEAAAAAIGYRDNLLFGDEIITNGFHSCESDEEDRASHASSSDWTPRPRIGPYTFVQQHLMIGTDPRTILKDLLPETIPPPELDDMTLWQIVINILSEPPKRKKRKDINTIEDAVKLLQECKKIIVLTGAGVSVSCGIPDFRSRDGIYARLAVDFPDLPDPQAMFDIEYFRKDPRPFFKFAKEIYPGQFQPSLCHKFIALSDKEGKLLRNYTQNIDTLEQVAGIQRIIQCHGSFATASCLICKYKVDCEAVRGDIFNQVVPRCPRCPADEPLAIMKPEIVFFGENLPEQFHRAMKYDKDEVDLLIVIGSSLKVRPVALIPSSIPHEVPQILINREPLPHLHFDVELLGDCDVIINELCHRLGGEYAKLCCNPVKLSEITEKPPRTQKELAYLSELPPTPLHVSEDSSSPERTSPPDSSVIVTLLDQAAKSNDDLDVSESKGCMEEKPQEVQTSRNVESIAEQMENPDLKNVGSSTGEKNERTSVAGTVRKCWPNRVAKEQISRRLDGNQYLFLPPNRYIFHGAEVYSDSEDDVLSSSSCGSNSDSGTCQSPSLEEPMEDESEIEEFYNGLEDEPDVPERAGGAGFGTDGDDQEAINEAISVKQEVTDMNYPSNKS
For B2, the “fold enhancement of the co-IP in the presence of DBC1” value is > 8 fold.

These data come from article PMC6309500 (Molecular cell, 2018).
